Laboratory results from paper PMC7824274, “Separation of Coiled-Coil Structures in Lamin A/C Is Required for the Elongation of the Filament” (Cells, 2020).
Where a chain is given by its changes, count along the chain named. Numbers in names are those of the source.

T1: His-tagged lamin A/C 1-300 fragment, Y45C (human), P02545
T1 chain: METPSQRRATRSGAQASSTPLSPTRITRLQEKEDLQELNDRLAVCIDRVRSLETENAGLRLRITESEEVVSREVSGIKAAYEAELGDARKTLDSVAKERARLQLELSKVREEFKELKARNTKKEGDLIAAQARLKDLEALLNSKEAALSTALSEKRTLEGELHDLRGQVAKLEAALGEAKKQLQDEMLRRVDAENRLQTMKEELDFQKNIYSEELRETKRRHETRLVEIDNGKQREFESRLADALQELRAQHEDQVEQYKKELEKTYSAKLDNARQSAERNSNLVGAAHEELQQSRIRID

T2: lamin A/C 250-400 fragment, K316C (human, UniProt P02545 250-400, K316C)
T2 construct: lamin A/C, human, residues 250-400 with K316C; the methods say that preys were His-tag cleaved; also called lamin 250-400 K316C; source: E. coli BL21 (DE3), purified (cobalt-Talon, TEV cleavage, HiTrap Q, SEC); not shown: His-tag, N-terminal, cleaved
T2 sequence (looked up): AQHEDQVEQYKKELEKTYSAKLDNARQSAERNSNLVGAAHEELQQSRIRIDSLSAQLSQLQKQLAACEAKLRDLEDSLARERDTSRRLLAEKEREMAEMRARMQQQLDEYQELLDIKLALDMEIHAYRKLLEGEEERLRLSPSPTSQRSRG

T3: lamin A/C 250-400 fragment, Y267C (human, UniProt P02545 250-400, Y267C)
T3 construct: lamin A/C, human, residues 250-400 with Y267C; the methods say that preys were His-tag cleaved; also called lamin 250-400 Y267C; source: E. coli BL21 (DE3), purified (cobalt-Talon, TEV cleavage, HiTrap Q, SEC); not shown: His-tag, N-terminal, cleaved
T3 sequence (looked up): T2 sequence (looked up) with Y18C, C67K

B1: His-tagged lamin A/C 1-300 fragment, wild type (domain or fragment, human, UniProt P02545 1-300, looked up)
chain: T1 chain with C45Y
notes: lamin A/C, human, residues 1-300 (N-terminal head, coil 1a, L1, coil 1b and following residues); pProEx-HTa vector: a TEV protease cleavage site stands between the His-tag and the lamin residues; also called lamin 300 fragment; His-lamin 1-300 WT; source: E. coli BL21 (DE3), purified (cobalt-Talon, HiTrap Q, SEC); not shown: His-tag, N-terminal, kept
B2: His-tagged lamin A/C 1-300 fragment, L35V (domain or fragment, human, UniProt P02545 1-300, looked up)
chain: T1 chain with L35V, C45Y
notes: lamin A/C, human, residues 1-300 with the EDMD mutation L35V; pProEx-HTa vector: a TEV protease cleavage site stands between the His-tag and the lamin residues; also called His-lamin 1-300 L35V; lamin 300 L35V; source: E. coli BL21 (DE3), purified (cobalt-Talon, HiTrap Q, SEC); not shown: His-tag, N-terminal, kept
B3: His-tagged lamin A/C 1-300 fragment, L59R (domain or fragment, human, UniProt P02545 1-300, looked up)
chain: T1 chain with C45Y, L59R
notes: lamin A/C, human, residues 1-300 with the CDM1A mutation L59R; pProEx-HTa vector: a TEV protease cleavage site stands between the His-tag and the lamin residues; also called His-lamin 1-300 L59R; lamin 300 L59R; source: E. coli BL21 (DE3), purified (cobalt-Talon, HiTrap Q, SEC); not shown: His-tag, N-terminal, kept
B4: His-tagged lamin A/C 1-300 fragment, Y45C (domain or fragment, human, UniProt P02545 1-300, looked up)
chain: T1 chain
notes: lamin A/C, human, residues 1-300 with the EDMD mutation Y45C; pProEx-HTa vector: a TEV protease cleavage site stands between the His-tag and the lamin residues; also called His-lamin 1-300 Y45C; lamin 300 Y45C; source: E. coli BL21 (DE3), purified (cobalt-Talon, HiTrap Q, SEC); not shown: His-tag, N-terminal, kept
B5: His-tagged lamin A/C 1-300 fragment, I63S (domain or fragment, human, UniProt P02545 1-300, looked up)
chain: T1 chain with C45Y, I63S
notes: lamin A/C, human, residues 1-300 with the EDMD mutation I63S; pProEx-HTa vector: a TEV protease cleavage site stands between the His-tag and the lamin residues; also called His-lamin 1-300 I63S; lamin 300 I63S; source: E. coli BL21 (DE3), purified (cobalt-Talon, HiTrap Q, SEC); not shown: His-tag, N-terminal, kept
B6: lamin A/C 250-400 fragment, wild type, tag-free (domain or fragment, human, UniProt P02545 250-400, looked up)
chain: T2 sequence (looked up) with C67K
notes: lamin A/C, human, residues 250-400 (C-terminal part of coil 2); His-tag cleaved with TEV protease; also called lamin 250-400; coil 2 fragment; source: E. coli BL21 (DE3), purified (cobalt-Talon, TEV cleavage, HiTrap Q, SEC); not shown: His-tag, N-terminal, cleaved
B7: His-tagged lamin A/C 1-125 fragment, Y45C (domain or fragment, human, UniProt P02545 1-125, looked up)
chain: METPSQRRATRSGAQASSTPLSPTRITRLQEKEDLQELNDRLAVCIDRVRSLETENAGLRLRITESEEVVSREVSGIKAAYEAELGDARKTLDSVAKERARLQLELSKVREEFKELKARNTKKEG
notes: pProEx-HTa vector: a TEV protease cleavage site stands between the His-tag and the lamin residues; source: E. coli BL21 (DE3), purified (cobalt-Talon, HiTrap Q, SEC); not shown: His-tag, N-terminal, kept
B8: His-tagged lamin A/C 1-125 fragment, wild type (domain or fragment, human, UniProt P02545 1-125, looked up)
chain: B7 chain with C45Y
notes: pProEx-HTa vector: a TEV protease cleavage site stands between the His-tag and the lamin residues; also called coil 1a fragment; source: E. coli BL21 (DE3), purified (cobalt-Talon, HiTrap Q, SEC); not shown: His-tag, N-terminal, kept
B9: His-tagged lamin A/C 1-125 fragment, L59R (domain or fragment, human, UniProt P02545 1-125, looked up)
chain: B7 chain with C45Y, L59R
notes: pProEx-HTa vector: a TEV protease cleavage site stands between the His-tag and the lamin residues; also called His-lamin 1-125 L59R; source: E. coli BL21 (DE3), purified (cobalt-Talon, HiTrap Q, SEC); not shown: His-tag, N-terminal, kept
B10: His-tagged lamin A/C 1-125 fragment, I63S (domain or fragment, human, UniProt P02545 1-125, looked up)
chain: B7 chain with C45Y, I63S
notes: as for B7

Assays:
[1] = biological target: the molecule itself; experiment: not stated; purified lamin 300 fragments in solution; how the dimeric state was found is not told
[2] = biological target: T1, His-tagged lamin A/C 1-300 fragment, …; experiment: ITC; His-tagged lamin 300 fragments in the cell (25 uM), TEV-cleaved lamin 250-400 in the syringe (180 uM); PBS; 25 °C; 19 injections of 2 uL; settings: remark: other sources report otherwise
[3] = biological target: B1; experiment: pull-down; His-tagged lamin 1-300 variants on Ni-NTA resin as bait, tag-free lamin 250-400 as prey; 20 mM Tris-HCl pH 8.0 with 50 mM or 150 mM NaCl; room temperature 30 min; SDS-PAGE; settings: both partners purified
[4] = biological target: B5; experiment: ITC; His-tagged lamin 300 fragments in the cell (25 uM), TEV-cleaved lamin 250-400 in the syringe (180 uM); PBS; 25 °C; 19 injections of 2 uL; settings: both partners purified
[5] = biological target: B2; experiment: as above; settings: both partners purified
[6] = biological target: B3; experiment: as above; settings: both partners purified
[7] = biological target: B6; experiment: pull-down; His-tagged lamin 1-125 variants on Ni-NTA resin as bait, lamin 250-400 as prey; 20 mM Tris-HCl pH 8.0 with 50 mM NaCl; SDS-PAGE; settings: both partners purified
[8] = biological target: B6; experiment: pull-down; His-tagged lamin 1-125 (wild type or L38C, L42C) on Ni-NTA resin, lamin 250-400 fragments (wild type or cysteine mutants) as prey; oxidized (0.5 mM GSSG) and reducing (5 mM TCEP) conditions; SDS-PAGE; settings: both partners purified
[9] = biological target: T2, lamin A/C 250-400 fragment, K316C; experiment: as above; settings: both partners purified
[10] = biological target: T3, lamin A/C 250-400 fragment, Y267C; experiment: as above; settings: both partners purified

Row | binding result [7] | Binder | stoichiometry N [1] | also measured
1 | – | B1 | 2 | –
2 | – | B2 | 2 | –
3 | – | B3 | 2 | –
4 | – | B4 | 2 | –
5 | – | B5 | 2 | –
6 | – | B6 | – | fold decrease of the interaction (KD) against wild type [2]: 5 fold; binding result [3]: binds; fold increase of the interaction (KD) against wild type [4]: ~2 fold; fold decrease of the interaction (KD) against wild type [5]: ~2 fold; fold increase of the interaction (KD) against wild type [6]: ~56 fold
7 | binds | B7 | – | –
8 | – | B8 | – | binding result [8]: binds; binding result [9]: binds; binding result [10]: binds
9 | binds | B9 | – | –
10 | binds | B10 | – | –
